Patent US20220363738A1

The substances below were run against purified fragment of human Calnexin containing Amino acid 1-481 fused to human FC region (FC-CNX) (human) (UniProt P27824) (assay: ELISA, coat CNX-Fc (figure title), antibody 1 ug/ml, HRP secondary, OD450 normalised to BSA).
Sequence of purified fragment of human Calnexin containing Amino acid 1-481 fused to human FC region (FC-CNX) (human) (P27824 21-481 limits assumed, form in doubt): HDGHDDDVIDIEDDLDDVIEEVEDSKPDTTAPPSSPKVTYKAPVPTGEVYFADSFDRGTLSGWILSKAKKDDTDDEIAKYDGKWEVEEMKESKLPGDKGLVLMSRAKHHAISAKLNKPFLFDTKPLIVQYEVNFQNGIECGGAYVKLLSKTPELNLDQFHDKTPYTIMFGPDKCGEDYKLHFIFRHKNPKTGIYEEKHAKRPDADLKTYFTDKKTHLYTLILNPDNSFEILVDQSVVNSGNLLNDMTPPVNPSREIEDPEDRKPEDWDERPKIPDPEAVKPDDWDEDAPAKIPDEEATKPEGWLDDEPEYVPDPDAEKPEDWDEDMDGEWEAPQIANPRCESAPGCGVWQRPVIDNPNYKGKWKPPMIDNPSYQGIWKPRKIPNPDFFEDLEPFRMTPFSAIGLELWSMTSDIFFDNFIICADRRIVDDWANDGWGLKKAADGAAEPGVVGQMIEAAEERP
Work on ctrl hIgG (antibody) yielded an OD450 (Normalised to BSA) of 0.51. For CNX ab10286 (antibody), the OD450 (Normalised to BSA) was 4.79. With CRT ab92516 (antibody) the OD450 (Normalised to BSA) was 0.9.
